Source: article PMC6449189

Key:
[1] = target: AcrVA4; experiment: SEC-MALS
[2] = target: Lachnospiraceae bacterium (ND2006) Cas12a (Lachnospiraceae bacterium (ND2006)); experiment: SEC-MALS

AcrVA4 (natural protein)
stoichiometry N [1]: 2 | stoichiometry N (AcrVA4 per LbCas12a-crRNA) [2]: 2
